According to article PMC6156153:

Molecular target: recombinant staphylococcal protein A (SpA) (Staphylococcus aureus) (UniProt P02976)
UniProt P02976, sequence (P02976 37-485): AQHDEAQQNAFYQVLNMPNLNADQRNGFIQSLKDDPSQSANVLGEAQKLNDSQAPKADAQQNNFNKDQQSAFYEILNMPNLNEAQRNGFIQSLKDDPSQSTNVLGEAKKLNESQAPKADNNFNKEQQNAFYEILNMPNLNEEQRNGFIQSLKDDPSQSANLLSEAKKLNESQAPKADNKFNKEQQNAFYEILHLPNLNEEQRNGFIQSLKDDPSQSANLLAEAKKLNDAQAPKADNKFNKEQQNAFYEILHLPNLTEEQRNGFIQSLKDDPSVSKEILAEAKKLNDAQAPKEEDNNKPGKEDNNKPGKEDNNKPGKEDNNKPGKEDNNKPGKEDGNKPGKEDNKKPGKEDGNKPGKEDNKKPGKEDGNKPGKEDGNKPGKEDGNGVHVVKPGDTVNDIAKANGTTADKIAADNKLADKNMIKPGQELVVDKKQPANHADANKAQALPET

Substance	in vivo depletion of adoptively transferred VHIII (T15i) B cells at 72 h after SpA challenge in muMT mice pretreated with 1 mg of the IgG (told of the IgG3 mAbs together) [% depletion]
recombinant murine VHI isotype control IgG3 (antibody genes of the anti-hen egg lysozyme D1.3 mAb)	60
recombinant murine VHIII IgG3 (variable regions of the anti-PC TEPC15 clone) (antibody)	60
